These results are taken from IntAct's records for PubMed 23803857.

B1: C-type lectin domain family 2 member A (Homo sapiens), Q6UVW9 (parent)
chain: MINPELRDGRADGFIHRIVPKLIQNWKIGLMCFLSIIITTVCIIMIATWSKHAKPVACSGDWLGVRDKCFYFSDDTRNWTASKIFCSLQKAELAQIDTQEDMEFLKRYAGTDMHWIGLSRKQGDSWKWTNGTTFNGWFEIIGNGSFAFLSADGVHSSRGFIDIKWICSKPKYFL
partner: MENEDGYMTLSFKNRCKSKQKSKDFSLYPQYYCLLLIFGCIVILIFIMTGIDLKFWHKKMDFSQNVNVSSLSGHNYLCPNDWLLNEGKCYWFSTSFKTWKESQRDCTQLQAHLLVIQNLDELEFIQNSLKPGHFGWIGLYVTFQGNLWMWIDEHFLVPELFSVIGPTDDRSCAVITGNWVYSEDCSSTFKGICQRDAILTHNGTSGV

This test covers variants of B1. The conditions noted are these: with klrf2_human KLRF2, D3W0D1.
Turning to D162A, the “effect of a mutation on the interaction” value is given as “decreasing interaction strength”.

D152A: the “effect of a mutation on the interaction” value was “with no effect”. On to S157A;R158A, for which the “effect of a mutation on the interaction” value was “decreasing interaction strength”. The value for F160A;I161A was “decreasing interaction strength”; that for F148A was “decreasing interaction strength”; that for T111A;D112A;M113A was “with no effect”. Consider H155A, for which the “effect of a mutation on the interaction” value is given as “decreasing interaction strength”.
